Assay results as given in PMC6828549 (Nature structural & molecular biology, 2019).

Molecular target: T1, His6-Nxf2 (full length), recombinant from insect cells (Drosophila melanogaster, UniProt Q9VV73 1-841)
T1 sequence: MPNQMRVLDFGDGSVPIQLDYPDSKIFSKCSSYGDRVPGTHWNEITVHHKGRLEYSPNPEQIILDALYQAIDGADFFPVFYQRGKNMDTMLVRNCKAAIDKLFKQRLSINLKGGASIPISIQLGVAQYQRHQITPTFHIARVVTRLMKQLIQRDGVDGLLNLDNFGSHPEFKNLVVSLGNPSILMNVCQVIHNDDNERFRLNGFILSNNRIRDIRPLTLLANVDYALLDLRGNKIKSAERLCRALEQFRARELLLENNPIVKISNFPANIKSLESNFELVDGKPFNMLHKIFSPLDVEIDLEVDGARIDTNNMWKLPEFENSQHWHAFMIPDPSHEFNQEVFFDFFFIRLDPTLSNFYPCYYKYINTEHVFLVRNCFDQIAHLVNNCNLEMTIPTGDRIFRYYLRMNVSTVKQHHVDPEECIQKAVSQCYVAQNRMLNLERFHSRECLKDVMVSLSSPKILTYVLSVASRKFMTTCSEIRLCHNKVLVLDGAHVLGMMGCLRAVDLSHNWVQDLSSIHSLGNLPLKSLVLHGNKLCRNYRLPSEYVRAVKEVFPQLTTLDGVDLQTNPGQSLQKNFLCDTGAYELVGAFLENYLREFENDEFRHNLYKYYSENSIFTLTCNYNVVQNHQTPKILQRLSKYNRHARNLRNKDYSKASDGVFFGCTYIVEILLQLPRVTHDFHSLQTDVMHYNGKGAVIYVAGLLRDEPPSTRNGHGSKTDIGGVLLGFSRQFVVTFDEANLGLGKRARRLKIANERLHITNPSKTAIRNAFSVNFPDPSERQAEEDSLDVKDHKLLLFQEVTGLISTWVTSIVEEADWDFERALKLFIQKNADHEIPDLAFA
Test: pull-down + SEC

B1: Strep-tagged Panoramix fragment (263–446) (domain or fragment)
chain: ASSQNESSKERKLRDTELDYVPVRPDEHFIRPIKFSNLIERRPPQVEFNTVNLSKADKRSLAVARAELVLEQIQQKANKEEPPEFHMVDTICKLPVNESFRNQDCFENPSPICNNMNVVYKFNSTPGTRIDLSKWGLETVPEATKRLLRLLGIDVARLKELQSTVKPSQRILKLKKEQLEQGLA
B1: binds.
